This is an account of results in article PMC5633104 (The Journal of Biological Chemistry, 2017).

As usually defined, the Kd is the free concentration of one partner at which half of the binding sites on the other are occupied at equilibrium, for simple one-to-one binding.

In test [1] the target is His-tagged β-catenin–WT, tyrosine-phosphorylated form (P–β-catenin) (UniProt P35222). Put plainly: ELISA; called a pairwise binding assay, done as in refs. 19, 20; by the legends a β-catenin-coated 96-well microtiter plate with Jak3 added, optical density read; Kd by Hyperbol-fit (MicroCal Origin).
The target of test [2] is Hif1α (UniProt Q16665). Description: co-IP and immunoblot. The settings on record: reference: wild type, EGF + IL-2; sites Y30,Y64,Y86. On the technique in general: A western blot detects proteins with antibodies after separation by electrophoresis.
The target of test [3] is T1, Autophosphorylated GST-tagged Jak3-WT (P-Jak3-WT) (UniProt P52333 1-1124, autophosphorylated on tyrosine (sites not given)).
T1 construct: also called phosphorylated Jak3; source: E. coli BL-21, purified, autophosphorylated
T1 sequence (looked up): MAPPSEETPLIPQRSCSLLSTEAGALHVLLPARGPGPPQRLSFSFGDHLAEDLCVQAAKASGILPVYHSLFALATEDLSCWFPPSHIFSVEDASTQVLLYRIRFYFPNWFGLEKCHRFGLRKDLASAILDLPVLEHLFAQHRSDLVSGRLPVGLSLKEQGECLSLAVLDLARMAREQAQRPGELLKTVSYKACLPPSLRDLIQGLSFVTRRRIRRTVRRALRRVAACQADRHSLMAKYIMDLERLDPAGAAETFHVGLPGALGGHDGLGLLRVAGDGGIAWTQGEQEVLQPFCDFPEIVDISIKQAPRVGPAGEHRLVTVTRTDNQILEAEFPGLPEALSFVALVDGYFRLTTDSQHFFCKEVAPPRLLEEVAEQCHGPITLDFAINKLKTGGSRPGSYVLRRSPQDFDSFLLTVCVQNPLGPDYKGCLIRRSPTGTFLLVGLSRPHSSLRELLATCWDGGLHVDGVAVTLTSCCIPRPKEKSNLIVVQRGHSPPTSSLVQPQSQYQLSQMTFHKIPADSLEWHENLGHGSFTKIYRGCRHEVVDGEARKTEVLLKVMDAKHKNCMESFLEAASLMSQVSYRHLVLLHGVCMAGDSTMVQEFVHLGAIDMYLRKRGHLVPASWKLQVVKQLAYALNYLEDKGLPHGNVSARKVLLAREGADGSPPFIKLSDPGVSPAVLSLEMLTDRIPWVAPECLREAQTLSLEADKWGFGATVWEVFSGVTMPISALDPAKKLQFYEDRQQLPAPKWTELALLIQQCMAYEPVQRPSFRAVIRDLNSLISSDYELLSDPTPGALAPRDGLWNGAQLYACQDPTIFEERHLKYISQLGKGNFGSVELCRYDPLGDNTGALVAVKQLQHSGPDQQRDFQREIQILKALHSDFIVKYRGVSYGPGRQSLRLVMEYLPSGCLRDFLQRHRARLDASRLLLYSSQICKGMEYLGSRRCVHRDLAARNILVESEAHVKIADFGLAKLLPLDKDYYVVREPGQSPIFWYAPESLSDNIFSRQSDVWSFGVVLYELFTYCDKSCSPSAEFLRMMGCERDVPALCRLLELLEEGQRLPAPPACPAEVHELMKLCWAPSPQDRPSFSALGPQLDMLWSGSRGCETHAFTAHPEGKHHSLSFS
Put plainly: ELISA; called a pairwise binding assay, done as in refs. 19, 20; by the legends a β-catenin-coated 96-well microtiter plate with Jak3 added, optical density read; Kd by Hyperbol-fit (MicroCal Origin). The conditions noted are these: both partners purified. For orientation: In an ELISA, binding on a coated surface is turned into a signal by an enzyme label.

Molecule “Jak3 with the kinase domain deleted (domain or fragment)” displayed a fold decrease of the interaction against Jak3-WT in test [1] above 4 fold. Take “β-catenin (from UniProt P35222) Y30F,Y64F,Y86F, EGF + IL-2”: the “binding against the reference” value in test [2] was “stronger”.

B1: His-tagged β-catenin–WT, tyrosine-phosphorylated form (P–β-catenin) (natural protein, UniProt P35222 1-781, looked up)
chain: MATQADLMELDMAMEPDRKAAVSHWQQQSYLDSGIHSGATTTAPSLSGKGNPEEEDVDTSQVLYEWEQGFSQSFTQEQVADIDGQYAMTRAQRVRAAMFPETLDEGMQIPSTQFDAAHPTNVQRLAEPSQMLKHAVVNLINYQDDAELATRAIPELTKLLNDEDQVVVNKAAVMVHQLSKKEASRHAIMRSPQMVSAIVRTMQNTNDVETARCTAGTLHNLSHHREGLLAIFKSGGIPALVKMLGSPVDSVLFYAITTLHNLLLHQEGAKMAVRLAGGLQKMVALLNKTNVKFLAITTDCLQILAYGNQESKLIILASGGPQALVNIMRTYTYEKLLWTTSRVLKVLSVCSSNKPAIVEAGGMQALGLHLTDPSQRLVQNCLWTLRNLSDAATKQEGMEGLLGTLVQLLGSDDINVVTCAAGILSNLTCNNYKNKMMVCQVGGIEALVRTVLRAGDREDITEPAICALRHLTSRHQEAEMAQNAVRLHYGLPVVVKLLHPPSHWPLIKATVGLIRNLALCPANHAPLREQGAIPRLVQLLVRAHQDTQRRTSMGGTQQQFVEGVRMEEIVEGCTGALHILARDVHNRIVIRGLNTIPLFVQLLYSPIENIQRVAAGVLCELAQDKEAAEAIEAEGATAPLTELLHSRNEGVATYAAAVLFRMSEDKPQDYKKRLSVELTSSLFRTEPMAWNETADLGLDIGAQGEPLGYRQDDPSYRSFHSGGYGQDALGMDPMMEHEMGGHHPGADYPVDGLPDLGHAQDLMDGLPPGDSNQLAWFDTDL
modifications: tyrosine-phosphorylated (made in TKX1; sites not stated)
notes: β-catenin, wild type, full-length cDNA; also called phosphorylated β-catenin; source: E. coli TKX1, purified
In the case of B1, the affinity in test [3], expressed as Kd, was 280 nM.
